In article PMC12635110:

Biological target: MCPH1-BRCT-eCR (tandem BRCT 2-3 of MCPH1) tandem BRCT domain (BRCT2-3)
Experiment: FRAP of eGFP in live cells
Conditions: reference: DMSO, outside spontaneous damage foci; sites S139

H2AX (from UniProt P16104) ETO ~1 h, within a damage focus
other: FRAP recovery half-life: same; reference 1.07 ± 0.76
